Laboratory results as given in PMC2756588.

T1: Abp1, P15891
T1 sequence (P15891 535-592, looked up): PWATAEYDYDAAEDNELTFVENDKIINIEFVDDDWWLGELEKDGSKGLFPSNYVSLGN

T2: Bbc1, P47068
T2 sequence (P47068 1-78, looked up): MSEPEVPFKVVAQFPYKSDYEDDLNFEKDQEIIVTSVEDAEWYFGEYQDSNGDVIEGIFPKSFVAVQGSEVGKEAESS

T3: Boi1, P38041
T3 sequence (P38041 1-86, looked up): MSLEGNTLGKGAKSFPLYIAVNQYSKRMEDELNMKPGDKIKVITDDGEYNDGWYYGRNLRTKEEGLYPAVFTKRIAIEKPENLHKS

T4: Boi2, P39969
T4 sequence (P39969 32-116, looked up): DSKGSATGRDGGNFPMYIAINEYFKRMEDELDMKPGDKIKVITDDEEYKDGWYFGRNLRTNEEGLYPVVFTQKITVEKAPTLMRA

T5: Bud14, P27637
T5 sequence (P27637 247-328, looked up): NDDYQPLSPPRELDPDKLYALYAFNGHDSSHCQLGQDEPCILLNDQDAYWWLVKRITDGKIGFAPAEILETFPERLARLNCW

T6: Bzz1-1, P38822
T6 sequence (P38822 478-572, looked up): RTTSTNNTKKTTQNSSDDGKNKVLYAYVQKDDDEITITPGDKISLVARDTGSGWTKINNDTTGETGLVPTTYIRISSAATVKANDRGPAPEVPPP

T7: Bzz1-2, P38822
T7 sequence (P38822 568-633, looked up): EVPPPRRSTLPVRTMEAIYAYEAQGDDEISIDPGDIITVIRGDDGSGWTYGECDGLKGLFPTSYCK

T8: Cdc25, P04821
T8 sequence (P04821 50-136, looked up): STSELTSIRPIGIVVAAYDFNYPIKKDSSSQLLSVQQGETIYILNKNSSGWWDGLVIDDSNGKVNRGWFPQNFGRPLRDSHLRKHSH

T9: Cyk3, Q07533
T9 sequence (Q07533 1-83, looked up): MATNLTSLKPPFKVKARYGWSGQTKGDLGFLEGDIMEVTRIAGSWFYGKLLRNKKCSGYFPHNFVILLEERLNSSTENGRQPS

T10: Fus1, P11710
T10 sequence (P11710 432-512, looked up): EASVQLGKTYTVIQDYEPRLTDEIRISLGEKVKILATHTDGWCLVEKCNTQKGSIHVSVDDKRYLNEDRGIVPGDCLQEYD

T11: Hof1, Q05080
T11 sequence (Q05080 590-669, looked up): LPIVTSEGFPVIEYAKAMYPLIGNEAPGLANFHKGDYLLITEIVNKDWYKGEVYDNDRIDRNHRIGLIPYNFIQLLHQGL

T12: Hse1, P38753
T12 sequence (P38753 208-285, looked up): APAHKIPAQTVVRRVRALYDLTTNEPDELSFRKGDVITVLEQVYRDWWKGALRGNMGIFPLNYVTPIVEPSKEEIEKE

T13: Lsb1, P53281
T13 sequence (P53281 45-122, looked up): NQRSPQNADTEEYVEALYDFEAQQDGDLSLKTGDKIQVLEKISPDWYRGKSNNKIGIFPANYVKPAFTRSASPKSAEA

T14: Lsb3, P43603
T14 sequence (P43603 385-451, looked up): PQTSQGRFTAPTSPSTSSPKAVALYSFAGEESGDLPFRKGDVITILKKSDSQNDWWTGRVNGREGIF

T15: Lsb4, P32793
T15 sequence (P32793 402-468, looked up): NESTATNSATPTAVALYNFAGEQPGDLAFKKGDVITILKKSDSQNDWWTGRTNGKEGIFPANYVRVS

T16: Myo5, Q04439
T16 sequence (Q04439 1072-1160, looked up): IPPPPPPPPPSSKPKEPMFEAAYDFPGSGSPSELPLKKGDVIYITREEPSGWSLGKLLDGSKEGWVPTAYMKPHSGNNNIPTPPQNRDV

T17: Nbp2, Q12163
T17 sequence (Q12163 103-180, looked up): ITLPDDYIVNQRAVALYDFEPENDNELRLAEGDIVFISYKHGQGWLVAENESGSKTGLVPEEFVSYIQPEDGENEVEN

T18: Pex13, P80667
T18 sequence (P80667 295-386, looked up): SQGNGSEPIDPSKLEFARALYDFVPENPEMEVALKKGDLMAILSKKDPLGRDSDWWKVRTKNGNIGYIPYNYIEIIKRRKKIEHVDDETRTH

T19: Pin3, Q06449
T19 sequence (Q06449 53-122, looked up): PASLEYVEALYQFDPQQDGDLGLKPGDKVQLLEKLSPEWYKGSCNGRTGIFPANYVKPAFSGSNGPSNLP

T20: Sla1-2, P32790
T20 sequence (P32790 60-140, looked up): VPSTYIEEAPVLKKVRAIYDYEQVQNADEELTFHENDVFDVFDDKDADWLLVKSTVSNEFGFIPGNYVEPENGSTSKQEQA

T21: Sla1-3, P32790
T21 sequence (P32790 344-424, looked up): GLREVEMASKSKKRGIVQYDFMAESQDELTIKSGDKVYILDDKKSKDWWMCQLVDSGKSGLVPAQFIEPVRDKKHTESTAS


Each binder was assayed against T1, Abp1, P15891 (assay: SPOT array). Conditions: median of control spots 935.

Binder	SPOT intensity
FYNRTAFQLPGDARV	3
AIPPPVPNRPGGTTN	7
SRQAIPPPVPNRPGG	24
NQARKPFLLPATELS	18

What follows are binders tested against T2, Bbc1, P47068 (assay: SPOT array). Conditions: median of control spots 796.

Binder	SPOT intensity
FYNRTAFQLPGDARV	0
AIPPPVPNRPGGTTN	196
SRQAIPPPVPNRPGG	247
NQARKPFLLPATELS	30

Each binder was assayed against Bem1-1, P29366 (assay: SPOT array). Conditions: median of control spots 4282.
Bem1-1, P29366, sequence (P29366 55-141): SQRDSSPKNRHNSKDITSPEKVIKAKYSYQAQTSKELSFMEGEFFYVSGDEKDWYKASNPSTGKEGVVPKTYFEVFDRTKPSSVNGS

Binder	SPOT intensity
FYNRTAFQLPGDARV	0
AIPPPVPNRPGGTTN	1
SRQAIPPPVPNRPGG	1
NQARKPFLLPATELS	0

What follows are binders tested against Bem1-2, P29366 (assay: SPOT array). Conditions: median of control spots 4347.
Bem1-2, P29366, sequence (P29366 139-227): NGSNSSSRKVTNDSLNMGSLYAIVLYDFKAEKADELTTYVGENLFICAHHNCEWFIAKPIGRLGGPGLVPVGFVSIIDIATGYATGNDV

Binder	SPOT intensity
FYNRTAFQLPGDARV	1
AIPPPVPNRPGGTTN	1
SRQAIPPPVPNRPGG	3
NQARKPFLLPATELS	1

The binders below were run against T3, Boi1, P38041 (assay: SPOT array). Conditions: median of control spots 1162.

Binder	SPOT intensity
FYNRTAFQLPGDARV	0
AIPPPVPNRPGGTTN	1
SRQAIPPPVPNRPGG	0
NQARKPFLLPATELS	3

These binders were tested against T4, Boi2, P39969 (assay: SPOT array). Conditions: median of control spots 1161.

Binder	SPOT intensity
FYNRTAFQLPGDARV	0
AIPPPVPNRPGGTTN	0
SRQAIPPPVPNRPGG	0
NQARKPFLLPATELS	0

The binders below were run against T5, Bud14, P27637 (assay: SPOT array). Conditions: median of control spots 956.

Binder	SPOT intensity
FYNRTAFQLPGDARV	4
AIPPPVPNRPGGTTN	2
SRQAIPPPVPNRPGG	0
NQARKPFLLPATELS	19

The binders below were run against T6, Bzz1-1, P38822 (assay: SPOT array). Conditions: median of control spots 4446.

Binder	SPOT intensity
FYNRTAFQLPGDARV	2
AIPPPVPNRPGGTTN	2
SRQAIPPPVPNRPGG	3
NQARKPFLLPATELS	0

What follows are binders tested against T7, Bzz1-2, P38822 (assay: SPOT array). Conditions: median of control spots 4538.

Binder	SPOT intensity
FYNRTAFQLPGDARV	0
AIPPPVPNRPGGTTN	0
SRQAIPPPVPNRPGG	0
NQARKPFLLPATELS	0

The binders below were run against T8, Cdc25, P04821 (assay: SPOT array). Conditions: median of control spots 969.

Binder	SPOT intensity
FYNRTAFQLPGDARV	0
AIPPPVPNRPGGTTN	0
SRQAIPPPVPNRPGG	0
NQARKPFLLPATELS	16

These binders were tested against T9, Cyk3, Q07533 (assay: SPOT array). Conditions: median of control spots 1451.

Binder	SPOT intensity
FYNRTAFQLPGDARV	0
AIPPPVPNRPGGTTN	2
SRQAIPPPVPNRPGG	1
NQARKPFLLPATELS	3

The binders below were run against T10, Fus1, P11710 (assay: SPOT array). Conditions: median of control spots 1200.

Binder	SPOT intensity
FYNRTAFQLPGDARV	0
AIPPPVPNRPGGTTN	0
SRQAIPPPVPNRPGG	1
NQARKPFLLPATELS	0

What follows are binders tested against GST (assay: SPOT array). Conditions: median of control spots 978.

Binder	SPOT intensity
FYNRTAFQLPGDARV	0
AIPPPVPNRPGGTTN	0
SRQAIPPPVPNRPGG	0
NQARKPFLLPATELS	2

What follows are binders tested against T11, Hof1, Q05080 (assay: SPOT array). Conditions: median of control spots 4086.

Binder	SPOT intensity
FYNRTAFQLPGDARV	0
AIPPPVPNRPGGTTN	1
SRQAIPPPVPNRPGG	1
NQARKPFLLPATELS	5

These binders were tested against T12, Hse1, P38753 (assay: SPOT array). Conditions: median of control spots 1727.

Binder	SPOT intensity
FYNRTAFQLPGDARV	2
AIPPPVPNRPGGTTN	22
SRQAIPPPVPNRPGG	22
NQARKPFLLPATELS	4

What follows are binders tested against T13, Lsb1, P53281 (assay: SPOT array). Conditions: median of control spots 388.

Binder	SPOT intensity
FYNRTAFQLPGDARV	2060
AIPPPVPNRPGGTTN	948
SRQAIPPPVPNRPGG	1590
NQARKPFLLPATELS	576

What follows are binders tested against T14, Lsb3, P43603 (assay: SPOT array). Conditions: median of control spots 406.

Binder	SPOT intensity
FYNRTAFQLPGDARV	2
AIPPPVPNRPGGTTN	453
SRQAIPPPVPNRPGG	658
NQARKPFLLPATELS	0

These binders were tested against T15, Lsb4, P32793 (assay: SPOT array). Conditions: median of control spots 397.

Binder	SPOT intensity
FYNRTAFQLPGDARV	0
AIPPPVPNRPGGTTN	222
SRQAIPPPVPNRPGG	373
NQARKPFLLPATELS	0

What follows are binders tested against Myo3, P36006 (assay: SPOT array). Conditions: median of control spots 468.

Binder	SPOT intensity
FYNRTAFQLPGDARV	1
AIPPPVPNRPGGTTN	8
SRQAIPPPVPNRPGG	63
NQARKPFLLPATELS	1

The binders below were run against T16, Myo5, Q04439 (assay: SPOT array). Conditions: median of control spots 471.

Binder	SPOT intensity
FYNRTAFQLPGDARV	1
AIPPPVPNRPGGTTN	0
SRQAIPPPVPNRPGG	21
NQARKPFLLPATELS	1

What follows are binders tested against T17, Nbp2, Q12163 (assay: SPOT array). Conditions: median of control spots 357.

Binder	SPOT intensity
FYNRTAFQLPGDARV	2
AIPPPVPNRPGGTTN	1
SRQAIPPPVPNRPGG	1
NQARKPFLLPATELS	4

These binders were tested against T18, Pex13, P80667 (assay: SPOT array). Conditions: median of control spots 1341.

Binder	SPOT intensity
FYNRTAFQLPGDARV	6
AIPPPVPNRPGGTTN	375
SRQAIPPPVPNRPGG	133
NQARKPFLLPATELS	0

These binders were tested against T19, Pin3, Q06449 (assay: SPOT array). Conditions: median of control spots 2171.

Binder	SPOT intensity
FYNRTAFQLPGDARV	151
AIPPPVPNRPGGTTN	48
SRQAIPPPVPNRPGG	55
NQARKPFLLPATELS	4

Each binder was assayed against Rvs167, P39743 (assay: SPOT array). Conditions: median of control spots 2707.
Rvs167, P39743, sequence (P39743 419-482): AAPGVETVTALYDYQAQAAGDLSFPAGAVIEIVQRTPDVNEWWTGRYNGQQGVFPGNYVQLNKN

Binder	SPOT intensity
FYNRTAFQLPGDARV	0
AIPPPVPNRPGGTTN	1430
SRQAIPPPVPNRPGG	833
NQARKPFLLPATELS	0

Each binder was assayed against Sho1, P40073 (assay: SPOT array). Conditions: median of control spots 1148.
Sho1, P40073, sequence (P40073 287-367): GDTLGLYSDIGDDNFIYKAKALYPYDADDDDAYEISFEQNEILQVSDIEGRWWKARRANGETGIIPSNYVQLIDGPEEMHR

Binder	SPOT intensity
FYNRTAFQLPGDARV	4
AIPPPVPNRPGGTTN	0
SRQAIPPPVPNRPGG	14
NQARKPFLLPATELS	38

What follows are binders tested against T20, Sla1-2, P32790 (assay: SPOT array). Conditions: median of control spots 712.

Binder	SPOT intensity
FYNRTAFQLPGDARV	0
AIPPPVPNRPGGTTN	0
SRQAIPPPVPNRPGG	0
NQARKPFLLPATELS	1

The binders below were run against T21, Sla1-3, P32790 (assay: SPOT array). Conditions: median of control spots 5475.

Binder	SPOT intensity
FYNRTAFQLPGDARV	5
AIPPPVPNRPGGTTN	1
SRQAIPPPVPNRPGG	3
NQARKPFLLPATELS	2
